Measurements from patent US20260014269A1 (NECTIN THERAPEUTICS, published 2026).

T1: Nectin-4 on MDA-MB-468 cells (human, UniProt Q96NY8 32-510)
T1 construct: whole, on cells; also called Nectin-4 (on-cell)
T1 sequence (looked up): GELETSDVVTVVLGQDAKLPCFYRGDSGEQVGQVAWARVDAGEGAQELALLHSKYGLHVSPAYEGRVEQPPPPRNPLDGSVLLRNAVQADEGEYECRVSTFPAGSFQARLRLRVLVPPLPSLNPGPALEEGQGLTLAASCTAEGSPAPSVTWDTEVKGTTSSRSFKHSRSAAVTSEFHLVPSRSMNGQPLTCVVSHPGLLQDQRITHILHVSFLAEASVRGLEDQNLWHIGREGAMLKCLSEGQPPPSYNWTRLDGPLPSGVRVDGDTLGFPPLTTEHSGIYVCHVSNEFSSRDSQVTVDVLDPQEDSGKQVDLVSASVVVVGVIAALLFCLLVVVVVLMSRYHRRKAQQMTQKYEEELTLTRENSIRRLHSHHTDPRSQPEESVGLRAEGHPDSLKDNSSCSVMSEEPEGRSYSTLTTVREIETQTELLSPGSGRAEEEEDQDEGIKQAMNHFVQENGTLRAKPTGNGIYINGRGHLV

T2: recombinant human Nectin-4 (Acro Biosystems) (human, UniProt Q96NY8 32-349)
T2 construct: Bought recombinant antigen used as analyte in SPR; also called PVRL4
T2 sequence (looked up): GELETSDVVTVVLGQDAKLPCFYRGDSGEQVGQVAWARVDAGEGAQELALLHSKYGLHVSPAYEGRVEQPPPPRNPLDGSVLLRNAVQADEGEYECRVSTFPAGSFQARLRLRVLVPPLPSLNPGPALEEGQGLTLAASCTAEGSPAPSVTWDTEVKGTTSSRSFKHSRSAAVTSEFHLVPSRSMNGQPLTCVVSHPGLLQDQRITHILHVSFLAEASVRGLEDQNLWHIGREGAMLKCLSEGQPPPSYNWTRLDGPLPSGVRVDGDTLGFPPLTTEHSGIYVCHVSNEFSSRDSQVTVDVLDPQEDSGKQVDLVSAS

T3: recombinant cynomolgus Nectin-4 (Acro Biosystems) (cynomolgus, UniProt A0A2K5WES1 32-349)
T3 construct: Bought recombinant antigen used as analyte in SPR; also called Cyno Nectin-4
T3 sequence: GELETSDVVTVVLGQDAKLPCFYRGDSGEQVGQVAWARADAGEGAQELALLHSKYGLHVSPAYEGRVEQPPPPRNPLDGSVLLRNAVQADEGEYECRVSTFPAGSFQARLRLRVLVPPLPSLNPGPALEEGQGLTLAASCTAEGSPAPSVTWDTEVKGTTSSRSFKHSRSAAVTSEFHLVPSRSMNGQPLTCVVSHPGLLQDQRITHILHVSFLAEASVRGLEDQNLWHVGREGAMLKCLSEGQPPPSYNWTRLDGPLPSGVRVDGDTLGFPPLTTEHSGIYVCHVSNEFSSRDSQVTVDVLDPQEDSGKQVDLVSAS

B1: NTX1105 (VH0/Vκ0) parental chimeric anti-Nectin-4 antibody, clone-11 (VH0/Vκ0)-hIgG1 (antibody, V domains shown)
VH: QVQLQQSGPELVKPETSVKISCKASGYTFTSYYIHWVKQRPGQGLEWIGWIYPGNVNTKYNERFKGKATLTADKSSNTAHMQLTSLTSEDSAVYFCARSNPYVMDYWGQGTSVTVSS
VL: SIVMTQTPKFLLVSAGDRVTITCKASQSVNNDVAWYQQKPGLSPELLMYYASNRFTGVPDRFTGSGYGTDFTFTISSVQAEDLAIYFCQQAYRSPYTFGGGTKLEIQR
notes: Tested from supernatants of transfected cell cultures; also called chimeric antibody; parental mAb
B2: NTX1105 (H4K5) ADC, conjugated to MMAE at the same DAR as PADCEV (antibody, V domains shown)
VH: QVQLVQSGSELKKPGASVKVSCKASGYTFTSYYIHWVRQAPGQGLEWIGWIYPGNVNTKYNERFKGRVTITADKSTNTAYMELSSLRSEDTAVYYCARSNPYVMDYWGQGTSVTVSS
VL: DIQMTQSPSTLSASVGDRVTITCRASQSVNNDVAWYQQKPGKAPKLLMYYASNRFTGVPDRFSGSGYGTDFTLTISSLQAEDVAVYFCQQAYRSPYTFGQGTKLEIK
notes: also called NTX1105-MMAE; NTX1105-MC-VC-PAB-MMAE DAR4
B3: NTX1105 humanized variant VH4/Vκ4 (antibody, V domains shown)
VH: QVQLVQSGSELKKPGASVKVSCKASGYTFTSYYIHWVRQAPGQGLEWIGWIYPGNVNTKYNERFKGRVTITADKSTNTAYMELSSLRSEDTAVYYCARSNPYVMDYWGQGTSVTVSS
VL: DIQMTQSPSTLSASVGDRVTITCRASQSVNNDVAWYQQKPGKAPKLLMYYASNRFTGVPDRFSGSGYGTDFTLTISSLQAEDLAIYFCQQAYRSPYTFGQGTKLEIK
notes: Humanized IgG
B4: NTX1105 humanized variant VH5/Vκ4 (antibody, V domains shown)
VH: QVQLVQSGSELKKPGASVKVSCKASGYTFTSYYIHWVRQAPGQGLEWMGWIYPGNVNTKYNERFQGRVTITADKSTSTAYMELSSLRSEDTAVYYCARSNPYVMDYWGQGTSVTVSS
VL: DIQMTQSPSTLSASVGDRVTITCRASQSVNNDVAWYQQKPGKAPKLLMYYASNRFTGVPDRFSGSGYGTDFTLTISSLQAEDLAIYFCQQAYRSPYTFGQGTKLEIK
notes: Humanized IgG
B5: NTX1105 humanized variant VH5/Vκ5 (antibody, V domains shown)
VH: QVQLVQSGSELKKPGASVKVSCKASGYTFTSYYIHWVRQAPGQGLEWMGWIYPGNVNTKYNERFQGRVTITADKSTSTAYMELSSLRSEDTAVYYCARSNPYVMDYWGQGTSVTVSS
VL: DIQMTQSPSTLSASVGDRVTITCRASQSVNNDVAWYQQKPGKAPKLLMYYASNRFTGVPDRFSGSGYGTDFTLTISSLQAEDVAVYFCQQAYRSPYTFGQGTKLEIK
notes: Humanized IgG; also called H5K5
B6: NTX1105 humanized variant VH4/Vκ1 (antibody, V domains shown)
VH: QVQLVQSGSELKKPGASVKVSCKASGYTFTSYYIHWVRQAPGQGLEWIGWIYPGNVNTKYNERFKGRVTITADKSTNTAYMELSSLRSEDTAVYYCARSNPYVMDYWGQGTSVTVSS
VL: SIVMTQSPSFLLASAGDRVTITCKASQSVNNDVAWYQQKPGLAPELLMYYASNRFTGVPDRFTGSGYGTDFTLTISSLQAEDLAIYFCQQAYRSPYTFGQGTKLEIK
notes: Humanized IgG
B7: NTX1105 humanized variant VH4/Vκ3 (antibody, V domains shown)
VH: QVQLVQSGSELKKPGASVKVSCKASGYTFTSYYIHWVRQAPGQGLEWIGWIYPGNVNTKYNERFKGRVTITADKSTNTAYMELSSLRSEDTAVYYCARSNPYVMDYWGQGTSVTVSS
VL: DIQMTQSPSTLSASVGDRVTITCKASQSVNNDVAWYQQKPGKAPKLLMYYASNRFTGVPDRFSGSGYGTDFTLTISSLQAEDLAIYFCQQAYRSPYTFGQGTKLEIK
notes: Humanized IgG
B8: NTX1105 humanized variant VH4/Vκ5 (antibody, V domains shown)
VH: QVQLVQSGSELKKPGASVKVSCKASGYTFTSYYIHWVRQAPGQGLEWIGWIYPGNVNTKYNERFKGRVTITADKSTNTAYMELSSLRSEDTAVYYCARSNPYVMDYWGQGTSVTVSS
VL: DIQMTQSPSTLSASVGDRVTITCRASQSVNNDVAWYQQKPGKAPKLLMYYASNRFTGVPDRFSGSGYGTDFTLTISSLQAEDVAVYFCQQAYRSPYTFGQGTKLEIK
notes: also called NTX1105 (H4/k5); H4K5

Assays:
[1] = target: T1, Nectin-4 on MDA-MB-468 cells; assay: flow cytometry staining of MDA-MB-468 cells, anti-human IgG Fab Alexa Fluor 647 detection
[2] = target: T2, recombinant human Nectin-4 (Acro …); assay: SPR, Biacore T200 single cycle kinetics at 25 C, IgG from culture supernatant, Nectin-4 as analyte
Description: (§1) In order to assess the binding of all of the variants to human or cynomolgus Nectin-4 antigen and select lead humanized IgGs with the closest affinity to the chimeric (VH0/Vκ0) antibody, single cycle kinetic was performed on supernatants from transfected cell cultures. Kinetic experiments were performed at 25° C. on a Biacore T200 running Biacore T200Control software V2.0.1 and Evaluation software V3.0 (Cytiva, Marlborough, USA). Single cycle kinetic data was obtained using recombinant human (Acro Biosystems, Newark, USA) or cynomolgus Nectin-4 (Acro Biosystems, Newark, USA) as the analyte injected at a flow rate of 40 μl/min to minimize any potential mass transfer effects. A four point, two-fold dilution range from 1.25 nM to 10 nM of antigen in running buffer was used without regeneration between each concentration. The association phases were monitored for 150 seconds for each of the four injections of increasing concentrations of antigen and a single dissociation phase was measured for 250 seconds following the last injection of antigen (in order to improve fit the dissociation was cropped to 175 seconds for human Nectin-4). Regeneration of the sensor chip surface was conducted using a single injection of 3 M MgCl₂. Based on relative KD from Biacore single cycle kinetics analysis on supernatants, six humanized variants (VH4/Vκ1, VH4/Vκ3, VH4/Vκ4, VH4/Vκ5, VH5/Vκ4 and VH5/Vκ5) were selected as lead IgGs for scaled-up production and purification.

[3] = target: T3, recombinant cynomolgus Nectin-4 (Acro …); assay: as above
Description: as §1

[4] = target: T1, Nectin-4 on MDA-MB-468 cells; assay: flow cytometry on MDA-MB-468 cells, 3-fold dilutions from 3 ug/ml, detection with Alexa Fluor 647 Fab goat anti-human IgG (H+L); y axis % Bound
Description: Binding was evaluated on MDA-MB-468 cells. Briefly, 5*10+ cells per well were stained using either PADCEV or NTX1105 conjugated to MMAE at the same DAR as PADCEV. The ADCs were added at concentrations starting 3 μg/ml using 3-fold dilutions. […] After 72 hours, the assay was harvested and tumor cell killing was evaluated using CellTiter-Glo® 2.0 Cell Viability Assay-(Promega G9242).

Molecule	EC50 [1] [nM]	fold stronger EC-50 than NTX1105 conjugated to MMAE [1] [fold]	Kd [2] [nM]	Kd [3] [nM]	EC50 (read off the curve) [4] [µg/mL]
Enfortumab-vedotin (PADCEV) (antibody)	0.01	20			
B1			10.9	12.1	
B2					~0.01
B3			18	21.3	
B4			17.7	19.2	
B5			11.5	12.7	
B6			15.4	19.3	
B7			15.5	19.4	
B8			12.2	13.7	
